Data on seven sequences can be found in the supplement of paper PMC11246515.

± gives the standard deviation of the averaged measurements.

This data set can be described thus: total protein half-life in vivo (active degradation + dilution); higher = more stable protein.
[1] abbreviates: E. coli NCM3722 delta-clpP delta-lon delta-hslV, growth: N-lim chemostat, doubling time 6 h.
Where [2] appears, read: E. coli NCM3722 delta-smpB, growth: N-lim chemostat, doubling time 6 h.
Setting [3] is: wild type E. coli NCM3722, growth: C-lim chemostat, doubling time 3 h.
Setting [4] is: wild type E. coli NCM3722, growth: C-lim chemostat, doubling time 6 h.
[5] abbreviates: wild type E. coli NCM3722, growth: C-lim chemostat, doubling time 12 h.
[6] abbreviates: E. coli NCM3722 delta-clpP, growth: N-lim chemostat, doubling time 6 h.
Setting [7] is: wild type E. coli NCM3722, growth: N-lim chemostat, doubling time 6 h.
Setting [8] is: wild type E. coli NCM3722, growth: P-lim chemostat, doubling time 6 h.
Where [9] appears, read: wild type E. coli NCM3722, growth: P-lim chemostat, doubling time 12 h.
[10] abbreviates: E. coli NCM3722 delta-hslV, growth: N-lim chemostat, doubling time 6 h.
Where [11] appears, read: E. coli NCM3722 delta-lon, growth: N-lim chemostat, doubling time 6 h.
Where [12] appears, read: wild type E. coli NCM3722, growth: N-lim chemostat, doubling time 12 h.

Turning to “MSQQRPDRIKQMLHYLWQHRHLSTQQAMELFGYAEATVRRDFQYIVNQYPGMIRGHGCLDFDDSTDDKEYVFDVKRTLQSVAKREIAALARTMIKDGDCFFLDSGSTCLELAKCLADARVKVICNDIKIANELGCFPHVESYIIGGLIRPGYFSVGESLALEMINAFSVERAFISCDALSLETGITNATMFEVGVKTRIIQRSREVILMADHSKFDAVEPHAVATLSCIKTIISDSGLPETIAQRYQRAGCQLFLPHSIK”, the “total protein half-life in vivo” value reads like this: under setting [1], 6.15 ± 1.6 h; under setting [2], 0.761 h; under setting [3], 2 h; under setting [4], 2.57 ± 0.049 h; under setting [5], 3.04 ± 0.33 h.

As for “MLHLFAGLDLHTGLLLLLALAFVLFYEAINGFHDTANAVATVIYTRAMRSQLAVVMAAVFNFLGVLLGGLSVAYAIVHMLPTDLLLNMGSSHGLAMVFSMLLAAIIWNLGTWYFGLPASSSHTLIGAIIGIGLTNALMTGTSVVDALNIPKVLSIFGSLIVSPIVGLVFAGGLIFLLRRYWSGTKKRARIHLTPAEREKKDGKKKPPFWTRIALILSAIGVAFSHGANDGQKGIGLVMLVLIGVAPAGFVVNMNATGYEITRTRDAINNVEAYFEQHPALLKQATGADQLVPAPEAGATQPAEFHCHPSNTINALNRLKGMLTTDVESYDKLSLDQRSQMRRIMLCVSDTIDKVVKMPGVSADDQRLLKKLKSDMLSTIEYAPVWIIMAVALALGIGTMIGWRRVATTIGEKIGKKGMTYAQGMSAQMTAAVSIGLASYTGMPVSTTHVLSSSVAGTMVVDGGGLQRKTVTSILMAWVFTLPAAVLLSGGLYWLSLQFL [P0AFJ7]”, the “total protein half-life in vivo” value was 6.99 ± 0.45 h under setting [1]; 6.5 ± 1.2 h under setting [6]; 6.14 ± 0.78 h under setting [2]; 3.761 ± 0.013 h under setting [3]; 6.37 ± 1.4 h under setting [4]; 14.4 ± 0.95 h under setting [5]. Also, the “total protein half-life in vivo” value is, setting by setting: under setting [7], 6.13 ± 0.24 h; under setting [8], 6.54 ± 0.4 h; under setting [9], 12.6 ± 1 h.

For “MGSDAKNLMSDGNVQIVKTGEVIGATQLTEGELIVEAGGRAENTVVTGAGWLKVATGGIAKCTQYGNNGTLSVSDGAIATDIVQSEGGAISLSTLATVNGRHPEGEFSVDKGYACGLLLENGGNLRVLEGHRAEKIILDQEGGLLVNGTTSAVVVDEGGELLVYPGGEASNCEINQGGVFMLAGKASDTLLAGGTMNNLGGEDSDTIVENGSIYRLGTDGLQLYSSGKTQNLSVNVGGRAEVHAGTLENAVIQGGTVILLSPTSADENFVVEEDRAPVELTGSVALLDGASMIIGYGAELQQSTITVQQGGVLILDGSTVKGDSVTFIVGNINLNGGKLWLITDAATHVQLKVKRLRGEGAICLQTSAKEISPDFINVKGEVTGDIHVEITDASRQTLCNALKLQPDEDGIGATLQPA”, the “total protein half-life in vivo” value is, setting by setting: under setting [1], 4.99 ± 0.55 h; under setting [6], 4.73 ± 0.33 h; under setting [10], 0.86 ± 0.11 h; under setting [11], 1.12 ± 0.029 h; under setting [2], 0.827 ± 0.0095 h; under setting [3], 1.15 ± 0.029 h. Further, the “total protein half-life in vivo” value reads like this: under setting [4], 1.56 ± 0.18 h; under setting [5], 2.44 ± 0.65 h; under setting [7], 1.07 ± 0.041 h; under setting [12], 1.32 ± 0.13 h; under setting [8], 1.73 ± 0.34 h; under setting [9], 3.47 ± 1.2 h.

In the case of “MQILKVIGLLMEYPDELLWECKEDALALIRRDAPMLTDFTHNLLNAPLLDKQAEWCEVFDRGRTTSLLLFEHVHAESRDRGQAMVDLLAEYEKVGLQLDCRELPDYLPLYLEYLSVLPDDQAKEGLLNVAPILALLGGRLKQREAPWYALFDALLQLAGSSLSSDSVTKQVNSEERDDTRQALDAVWEEEQVKFIEDNATACDSSPLNQYQRRFSQDVAPQYVDISAGGGK”, the “total protein half-life in vivo” value was 3.93 ± 0.43 h under setting [1]; 1.45 h under setting [6]; 0.577 h under setting [10]; 0.917 h under setting [11]; 0.553 h under setting [2]; 1.45 ± 0.12 h under setting [4]. The “total protein half-life in vivo” value under setting [5] amounted to 1.78 h, the “total protein half-life in vivo” value under setting [7] was found to be 0.752 ± 0.1 h, the “total protein half-life in vivo” value under setting [12] amounted to 0.75 h and the “total protein half-life in vivo” value under setting [9] was found to be 1.94 ± 0.61 h.

In the case of “MKKISLPKIGIRPVIDGRRMGVRESLEEQTMNMAKATAALLTEKLRHACGAAVECVISDTCIAGMAEAAACEEKFSSQNVGLTITVTPCWCYGSETIDMDPTRPKAIWGFNGTERPGAVYLAAALAAHSQKGIPAFSIYGHDVQDADDTSIPADVEEKLLRFARAGLAVASMKGKSYLSLGGVSMGIAGSIVDHNFFESWLGMKVQAVDMTELRRRIDQKIYDEAELEMALAWADKNFRYGEDENNKQYQRNAEQSRAVLRESLLMAMCIRDMMQGNSKLADIGRVEESLGYNAIAAGFQGQRHWTDQYPNGDTAEAILNSSFDWNGVREPFVVATENDSLNGVAMLMGHQLTGTAQVFADVRTYWSPEAIERVTGHKLDGLAEHGIIHLINSGSAALDGSCKQRDSEGNPTMKPHWEISQQEADACLAATEWCPAIHEYFRGGGYSSRFLTEGGVPFTMTRVNIIKGLGPVLQIAEGWSVELPKDVHDILNKRTNSTWPTTWFAPRLTGKGPFTDVYSVMANWGANHGVLTIGHVGADFITLASMLRIPVCMHNVEETKVYRPSAWAAHGMDIEGQDYRACQNYGPLYKR”, the “total protein half-life in vivo” value turned out to be 4.26 ± 0.39 h under setting [1]; 4.38 h under setting [6]; 3.06 h under setting [11]; 3.21 h under setting [2]; 3.42 ± 0.12 h under setting [3]; 5.12 ± 0.1 h under setting [4]. The “total protein half-life in vivo” value runs as follows: under setting [5], 9.64 ± 0.84 h; under setting [7], 2.78 ± 0.2 h; under setting [8], 5.22 ± 0.62 h; under setting [9], 10.9 ± 1.1 h.

Consider “MNDTSFENCIKCTVCTTACPVSRVNPGYPGPKQAGPDGERLRLKDGALYDEALKYCINCKRCEVACPSDVKIGDIIQRARAKYDTTRPSLRNFVLSHTDLMGSVSTPFAPIVNTATSLKPVRQLLDAALKIDHRRTLPKYSFGTFRRWYRSVAAQQAQYKDQVAFFHGCFVNYNHPQLGKDLIKVLNAMGTGVQLLSKEKCCGVPLIANGFTDKARKQAITNVESIREAVGVKGIPVIATSSTCTFALRDEYPEVLNVDNKGLRDHIELATRWLWRKLDEGKTLPLKPLPLKVVYHTPCHMEKMGWTLYTLELLRNIPGLELTVLDSQCCGIAGTYGFKKENYPTSQAIGAPLFRQIEESGADLVVTDCETCKWQIEMSTSLRCEHPITLLAQALA [P0A996]”, for which the “total protein half-life in vivo” value under setting [1] turned out to be 6.38 h.

Turning to “MQNNEQTEYKTVRGLTRGLMLLNMLNKLDGGASVGLLAELSGLHRTTVRRLLETLQEEGYVRRSPSDDSFRLTIKVRQLSEGFRDEQWISALAAPLLGDLLREVVWPTDVSTLDVDAMVVRETTHRFSRLSFHRAMVGRRLPLLKTASGLTWLAFCPEQDRKELIEMLASRPGDDYQLAREPLKLEAILARARKEGYGQNYRGWDQEEKIASIAVPLRSEQRVIGCLNLVYMASAMTIEQAAEKHLPALQRVAKQIEEGVESQAILVAGRRSGMHLR”, the “total protein half-life in vivo” value under setting [1] was 6.32 ± 0.84 h; the “total protein half-life in vivo” value under setting [6] was found to be 2.12 h; the “total protein half-life in vivo” value under setting [10] turned out to be 1.85 ± 0.042 h; the “total protein half-life in vivo” value under setting [11] amounted to 2.59 h; the “total protein half-life in vivo” value under setting [2] was found to be 1.26 h; the “total protein half-life in vivo” value under setting [3] is 1.55 ± 0.24 h. Also, the “total protein half-life in vivo” value under setting [4] came to 2.35 ± 0.052 h; the “total protein half-life in vivo” value under setting [5] came out at 3.26 ± 1.1 h; the “total protein half-life in vivo” value under setting [7] worked out at 1.85 ± 0.27 h; the “total protein half-life in vivo” value under setting [8] amounted to 1.72 ± 0.43 h; the “total protein half-life in vivo” value under setting [9] is 2.94 ± 0.64 h.
